In US12018068B2, “Anti-O1 antibodies and uses thereof” (priority 2016, dated 2024):

Legend:
[1] = system: clinical Klebsiella strains; assay: western blot binding to clinical isolates
Experimental: In order to determine if anti-O1 antigen antibodies bind to clinically relevant Klebsiella strains, the binding of KPE33 to clinical isolates was determined by western blot assay. The ability of KPE33 to bind to all of these strains as well as its ability to protect against four different strains in vivo indicate that KPE33 can kill many clinically relevant Klebsiella strains.

Kp8561 Klebsiella = assay: bacteremia model, KPE33 synergy with meropenem; format: in vivo, Klebsiella pneumoniae; conditions: antibody 2.5 mpk, meropenem 5 mpk, post challenge
Experimental: The synergy of anti-O1 antigen antibodies and antibiotic was also assessed in the pneumonia and bacteremia mouse models.
In the pneumonia experiments, C57BL/6 mice were inoculated intranasally with 1e4 to 1e8 CFU of the Kp8045 Klebsiella. (See FIG. 4A.) In the bacteremia experiments, mice were inoculated with Kp8561 Klebsiella. (See FIG. 4B.) Both sub-therapeutic dosage of antibodies (1 mpk for Kp8045 and 2.5 mpk for Kp8561) and meropenem antibiotic (2.5 mpk for Kp8045 and 5 mpk for Kp8561) were administered post bacterial challenge. Mouse survival was monitored daily until up to day 8.

O1 LPS = assay: Octet binding affinity to O1 LPS; design: species or system Klebsiella pneumoniae; conditions: average, from on-rate and off-rate, read-out: affinity constant (KD) to O1 LPS
Description: In order to reduce potential sequence liabilities for antibody development including potential immunogenicity due to anti-drug antibodies, an unpaired Cysteine in the light chain CDR3 of KPE33 was exchanged with Threonine (T), and somatic mutations in the frameworks 1, 2, and 4 of KPE33 were replaced with germ line residues (as summarized in FIG. 5). CDRs were maintained as wildtype, except for the C107T substitution described above. The optimized KPE33 was named KPE33v2016. […] This platform provides a powerful tool to measure the rate of biomolecular complex formation and complex stability in a more biologically meaningful setting. Briefly, Protein A coated sensors were coated with 2 μg/mL O1 LPS for 10 minutes before being dipped into solution containing 0.2 μg/mL anti-O1 LPS mAbs in Kinetics buffer (ForteBio, dilute 10× to 1× with PBS). Changes in the number of molecules bound to the biosensor caused a shift in the interference pattern that was recorded in real time. […] The affinity constant (KD) of KPE33 and KPE33v2016 to O1 LPS was calculated based on the on-rate and off-rate from Octet sensorgram.
KPE33v2016 was further optimized, thereby creating two new variants—KPE33 H32+L2016(1EQ) and KPE33 H33+L2016(1EQ). Both of these variants contain a Methionine to Isoleucine mutation adjacent to CDRH1, a Tryptophan to Tyrosine mutation in CDRH2, an Aspartate to Glutamate mutation adjacent to CDRH2, Asparagine to Glutamine and Methionine to Leucine mutations in FRH3 and an Aspartate to Asparagine mutation in CDRH3. In addition, KPE33 H32+L2016(1EQ) had four FRH3 residues changed to the germ-line residues, whereas KPE33 H33+L2016(1EQ) only has three of the same FRH3 residues changed to the germ-line. Both of these variants contain the same light chain as KPE33v2016, but with a single Glutamate to Glutamine mutation in residue 1.

[2] = system: K. pneumoniae strain Kp8045 (O1:K1); assay: intranasal lung infection model, lung bacterial burden; format: in vivo, Klebsiella pneumoniae; conditions: C57BL/6 mice, 15 mg/kg, CFU 48 hours post infection
Experimental: The ability of anti-O1 antigen antibodies to reduce organ burden was tested in bacterial infection models. In these experiments, C57BL/6 mice were received from Jackson laboratories and maintained in a special pathogen free facility. All animal experiments were conducted in accordance with IACUC protocol and guidance. K. pneumoniae strains were grown on agar plates overnight and diluted in saline at proper concentration. The inoculum titer was determined by plating a serial dilution of bacteria onto agar plates prior to and post challenge.
Antibodies and controls at 15 mg/kg were administered 24 hours prior to bacterial infection. C57BL/6 mice were inoculated with 1e4 CFU Kp8045 (O1:K1) bacteria in 40 μl saline intranasally to induce pneumonia. The lung bacterial burden was measured by plating lung homogenates onto agar plates to determine CFU 48 hours post infection.

[3] = system: highly virulent strain Kp43816 (O1); assay: acute pneumonia model with Kp43816, prophylactic dosing, survival; format: in vivo, Klebsiella pneumoniae; conditions: 15 mpk, 24 hour prior to challenge
Experimental: In order to determine the efficacy of anti-O1 antigen antibodies in combination with antibiotics, 54H7 was tested in an acute pneumonia models. C57BL/6 mice were inoculated intranasally with 1e4 CFU of highly virulent strain Kp43816 (O1). Anti-K. pneumoniae monoclonal antibody 54H7 at 15 mg/kg and human IgG1 control antibody at 15 mg/kg were given 24 hour prior bacterial challenge (prophylatic dosing). Mouse survival was monitored daily until up to day 14.

purified O1 LPS = assay: Fortebio Octet competitive binding on O1 LPS; design: species or system Klebsiella pneumoniae; conditions: 10 μg/mL, probe pre-bound with KPE33
Experimental: Briefly, after initial binding with 10 μg/mL KPE33, the probe was incubated with antibody mixtures containing 10 μg/mL KPE33 with equal concentrations of 54H7, KPE33, or the control antibody R347.

Kp8045 Klebsiella = assay: pneumonia model, 54H7 synergy with meropenem; format: in vivo, Klebsiella pneumoniae; conditions: antibody 1 mpk at 1 hour, meropenem 1.5 mpk at 4 hour post challenge
Experimental: The synergy of anti-O1 antigen antibodies and antibiotic was also assessed in the pneumonia mouse models. C57BL/6 mice were inoculated intranasally with 1e4 to 1e8 CFU of Kp8045 Klebsiella. Both sub-therapeutic dosage of antibodies (1 mpk) and meropenem antibiotic (1.5 mpk) were administered at 1 hour or 4 hour post bacterial challenge, respectively. Mouse survival was monitored daily until up to day 8.

[4] = system: Kp43816 LPS and Kp15380 LPS; assay: serum cytokines after LPS challenge (MSD kit); format: in vivo, C57BL/6 mice; conditions: 3 hours after challenge with Kp43816 LPS and Kp15380 LPS
Experimental: In order to determine the effect of anti-O1 antigen antibodies on serum cytokines after LPS challenge, C57BL/6 mice were challenged with 0.3 mg/kg LPS intraperitoneally 24 hours after anti-O1 administration. 3 hours later, animals were sacrificed, and serum cytokines were measured using a Meso Scale Discovery (MSD) proinflammatory cytokine kit based on manufacturer's instruction. Polymyxin B (PMB) was used as a positive control. Serum IL-6, TNF-alpha, and CXCL1 concentration were plotted in Prism.

B1: KPE33: human anti-K. pneumoniae O1 antigen antibody, VH SEQ ID NO:8, VL SEQ ID NO:9, isolated as IgG2 from donor #262 (antibody, V domains shown)
VH: EVQLVESGGALVQPGGSLRLSCAVSGFIFDDYAIHWVRRAPGKGLEWVSGIAWKSGATNYADSVKGRFAISRDNSKKSMYLQMNSLGTEDTALYYCTRRRASGDDTFYYFDYWGQGTLVTVSS
VL: EIVLTQSPATLSLSPGERATLSCRASQNVNTNLAWYQQRPGQSPRLLIYDASTRAAGLPARFSGSGSGTDFTLTISSLEPEDFAVYYCQQCTNWRYTFGQGTKLEIK
modifications: KPE33 VH Amino Acid Sequence; KPE33 VL Amino Acid Sequence
binding to clinical isolates ([1]; Table 8): binds not only to a large and diverse group of clinical strains, but also to antibiotic resistant clinically relevant strains
binding of KPE33 to clinical Klebsiella strains ([1]; clinical isolates listed in Table 8 (rows 1-36 CRE, rows 37-134 ESBL, rows 135-184 antibiotic-susceptible)): Summary of clinical Klebsiella strains which KPE33 binds.
survival, combination with meropenem, bacteremia Kp8561 (Kp8561 Klebsiella): significant synergy and better protection than monotherapy
Kd (O1 LPS): 5.83 nM
lung bacterial burden [2]: significantly reduced organ burden

B2: 54H7: mouse hybridoma anti-O1 antigen antibody (Ms IgG3), VH SEQ ID NO:47, VL SEQ ID NO:48 (antibody, V domains shown)
VH: QVHLQQPGSELVRPGASVTLSCKASGYTFTNYWMQWVKQRPGQGLEWIGNIYPGSGNTNYDEKFRSKATLTVDTSSSTAYMHLTSLTSEDSAVYYCTRNWNFDYWGQGTTLTVSS
VL: DIQMTQSPSSLSASLGERVSLTCRASQDIGSSLNWLQQEPDGTIKRLIYATSSLDSGVPKRFSGSRSGSEYSLTISSLEAEDFVDYYCLQHTDSPYTFGGGTKLELK
modifications: 54H7 VH; 54H7 VL Amino Acid Sequence
survival, Kp43816 pneumonia, monotherapy [3]: significant protection
additional binding after initial binding of KPE33 (purified O1 LPS): able to show additional binding
survival, combination with meropenem, pneumonia Kp8045 (Kp8045 Klebsiella): significant synergy and better protection than monotherapy
serum IL-6 [4]: reduces
serum KC (CXCL1) [4]: reduces
serum TNF-alpha [4]: reduces
